The target of data set [1] is WSUCF1 β-xylosidase (GH39 β-xylosidase from Geobacillus sp. strain WSUCF1) (Geobacillus sp. strain WSUCF1). The data set is described as follows: SDS-PAGE without heat treatment, with zymogram; purified enzyme mixed with 2X SDS sample buffer, loaded on an 8-16% gradient SDS-PAGE gel without heating (230 kDa, active) or after 95°C for 2 min (58 kDa, inactive); tetramer inferred from the 4-fold increase in apparent mass.

The target of the next data set is T1, WSUCF1 β-xylosidase (Geobacillus zalihae, UniProt A0A7H1RXW2).
T1 construct: gene IC807_05610; full-length ORF of 1509 bp (about 502 residues); N-His SUMO fusion expressed in E. coli, tag cleaved with SUMO protease; 58 kDa, apparent tetramer of 230 kDa
T1 sequence (A0A7H1RXW2 2-503): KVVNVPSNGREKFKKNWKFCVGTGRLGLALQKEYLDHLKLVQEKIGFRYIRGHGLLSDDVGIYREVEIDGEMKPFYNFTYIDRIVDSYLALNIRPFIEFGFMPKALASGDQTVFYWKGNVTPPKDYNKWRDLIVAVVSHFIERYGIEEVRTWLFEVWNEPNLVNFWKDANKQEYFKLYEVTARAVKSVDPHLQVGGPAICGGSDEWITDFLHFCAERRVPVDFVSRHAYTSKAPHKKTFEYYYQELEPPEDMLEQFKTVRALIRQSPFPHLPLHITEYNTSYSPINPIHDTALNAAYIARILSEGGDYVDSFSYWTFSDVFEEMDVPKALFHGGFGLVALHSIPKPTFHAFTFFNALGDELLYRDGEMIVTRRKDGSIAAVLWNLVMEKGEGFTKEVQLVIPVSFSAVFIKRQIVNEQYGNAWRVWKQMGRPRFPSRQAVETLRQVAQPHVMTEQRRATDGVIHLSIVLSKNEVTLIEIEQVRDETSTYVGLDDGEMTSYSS
The data set is described as follows: residual pNPX hydrolysis with added xylose. It is filed as biochemical. The conditions noted are these: pNPX 2.5 mg/ml stock as substrate, phosphate buffer pH 6.5, 70°C, 10 min; end-product inhibition.

Substrate in the data set “purified protein”: O=[N+]([O-])c1ccc(O[C@@H]2OC[C@@H](O)[C@H](O)[C@H]2O)cc1
The data set is described as follows: purified protein. It is filed as biochemical, Geobacillus zalihae. The conditions noted are these: 50 mM phosphate buffer pH 6.5, 70°C, 0–15 mM substrate, Table 2 prints 2.3.

The text below walks through data of publication PMC4300165, “Highly thermostable GH39 β-xylosidase from a Geobacillus sp. strain WSUCF1” (BMC Biotechnology, 2014).

“WSUCF1 β-xylosidase (GH39 β-xylosidase from Geobacillus sp. strain WSUCF1) (enzyme)”: the stoichiometry N (usually the number of molecules, sites or subunits per partner or assembly) in data set [1] amounted to 4.

Consider `OC1OC[C@@H](O)[C@H](O)[C@H]1O` (stereo partly drawn) [xylose], for which the “% activity retained at 300 mM” value on WSUCF1 β-xylosidase turned out to be 50%.

B1: WSUCF1 β-xylosidase (Geobacillus zalihae) (protein)
chain: KVVNVPSNGREKFKKNWKFCVGTGRLGLALQKEYLDHLKLVQEKIGFRYIRGHGLLSDDVGIYREVEIDGEMKPFYNFTYIDRIVDSYLALNIRPFIEFGFMPKALASGDQTVFYWKGNVTPPKDYNKWRDLIVAVVSHFIERYGIEEVRTWLFEVWNEPNLVNFWKDANKQEYFKLYEVTARAVKSVDPHLQVGGPAICGGSDEWITDFLHFCAERRVPVDFVSRHAYTSKAPHKKTFEYYYQELEPPEDMLEQFKTVRALIRQSPFPHLPLHITEYNTSYSPINPIHDTALNAAYIARILSEGGDYVDSFSYWTFSDVFEEMDVPKALFHGGFGLVALHSIPKPTFHAFTFFNALGDELLYRDGEMIVTRRKDGSIAAVLWNLVMEKGEGFTKEVQLVIPVSFSAVFIKRQIVNEQYGNAWRVWKQMGRPRFPSRQAVETLRQVAQPHVMTEQRRATDGVIHLSIVLSKNEVTLIEIEQVRDETSTYVGLDDGEMTSYSS
notes: full-length ORF of 1509 bp (about 502 residues); N-His SUMO fusion expressed in E. coli, tag cleaved with SUMO protease; 58 kDa, apparent tetramer of 230 kDa
As for B1, in “purified protein”, the Km (usually the substrate concentration at which the rate is half of its maximum) turned out to be 2.38 mM.
